Measurements published in patent US20250304643A1 (BAINAN BIOTECH, published 2025).
*1 amine or outer side, *2 acyl side, *3 side chain or, on linkers, in order; H or OH if unused. Where no end group is shown, it is not given here. Side-chain parts run from the residue outwards. [ ]: non-standard residue; d: D form. The star is where a group is joined. C18 diacid = O=C(O)CCCCCCCCCCCCCCCCC(=O)*; C16 diacid = O=C(O)CCCCCCCCCCCCCCC(=O)*; γGlu = O=C(O)[C@H](CCC(=O)[*:2])N[*:1]; Palmitoyl = CCCCCCCCCCCCCCCC(=O)*; Decanoyl = CCCCCCCCCC(=O)*; AEEA = NCCOCCOCC(=O)O; Aib = CC(C)(N)C(=O)O

T1: human GIPR (glucose-dependent insulinotropic polypeptide receptor) (human, UniProt P48546 22-466)
T1 sequence (looked up): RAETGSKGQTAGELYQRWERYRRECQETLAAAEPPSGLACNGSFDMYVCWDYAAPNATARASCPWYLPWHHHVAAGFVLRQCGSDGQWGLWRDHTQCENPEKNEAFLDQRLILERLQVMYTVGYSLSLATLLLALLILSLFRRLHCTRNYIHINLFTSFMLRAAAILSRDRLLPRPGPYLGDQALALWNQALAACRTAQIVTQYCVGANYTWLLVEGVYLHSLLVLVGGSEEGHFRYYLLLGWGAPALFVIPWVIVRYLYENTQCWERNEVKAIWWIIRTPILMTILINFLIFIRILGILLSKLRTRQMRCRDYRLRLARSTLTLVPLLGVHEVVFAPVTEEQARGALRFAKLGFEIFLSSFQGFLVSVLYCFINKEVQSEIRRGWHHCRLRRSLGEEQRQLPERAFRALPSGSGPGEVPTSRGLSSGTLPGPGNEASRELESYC

T2: rat GIPR (rat, UniProt P43219 19-455)
T2 sequence (looked up): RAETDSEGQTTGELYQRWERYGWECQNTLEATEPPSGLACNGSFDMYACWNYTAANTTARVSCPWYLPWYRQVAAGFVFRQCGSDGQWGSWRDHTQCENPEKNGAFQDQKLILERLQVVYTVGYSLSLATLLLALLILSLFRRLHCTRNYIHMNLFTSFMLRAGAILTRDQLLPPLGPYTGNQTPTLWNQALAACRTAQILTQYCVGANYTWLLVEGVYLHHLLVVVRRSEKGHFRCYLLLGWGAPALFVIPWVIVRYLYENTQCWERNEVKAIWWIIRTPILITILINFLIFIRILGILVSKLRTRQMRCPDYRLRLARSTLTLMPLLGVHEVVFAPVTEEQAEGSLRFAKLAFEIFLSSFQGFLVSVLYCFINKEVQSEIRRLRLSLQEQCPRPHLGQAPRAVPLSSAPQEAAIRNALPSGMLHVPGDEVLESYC

T3: human GLP-2R (glucagon-like peptide-2 receptor) (human, UniProt O95838 1-553)
T3 sequence (looked up): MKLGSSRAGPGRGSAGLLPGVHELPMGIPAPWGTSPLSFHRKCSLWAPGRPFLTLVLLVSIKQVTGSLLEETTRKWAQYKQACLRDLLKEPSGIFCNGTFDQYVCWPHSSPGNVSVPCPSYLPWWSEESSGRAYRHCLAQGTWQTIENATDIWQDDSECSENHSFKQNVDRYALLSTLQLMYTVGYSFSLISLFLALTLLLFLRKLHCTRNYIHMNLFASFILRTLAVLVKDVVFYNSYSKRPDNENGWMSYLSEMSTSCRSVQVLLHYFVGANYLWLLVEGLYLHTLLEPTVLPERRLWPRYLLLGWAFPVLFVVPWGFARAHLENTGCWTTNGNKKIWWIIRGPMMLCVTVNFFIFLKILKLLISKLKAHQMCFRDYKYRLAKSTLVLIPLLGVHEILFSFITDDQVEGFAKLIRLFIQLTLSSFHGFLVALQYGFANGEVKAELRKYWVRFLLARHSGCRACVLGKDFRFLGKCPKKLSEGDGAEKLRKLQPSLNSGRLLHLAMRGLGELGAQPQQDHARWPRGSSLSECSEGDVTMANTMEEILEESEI

B1: Compound no. 25 (peptide)
peptide: H[Aib]DGK([γGlu-C16 diacid])FISDYST[Aib]LDNLAARDFINWLIQTKITK-OH
modifications: N-terminus assumed
SMILES: CC[C@H](C)[C@H](NC(=O)[C@H](Cc1ccccc1)NC(=O)[C@H](CCCCNC(=O)CC[C@H](NC(=O)CCCCCCCCCCCCCCC(=O)O)C(=O)O)NC(=O)CNC(=O)[C@H](CC(=O)O)NC(=O)C(C)(C)NC(=O)[C@@H](N)Cc1c[nH]cn1)C(=O)N[C@@H](CO)C(=O)N[C@@H](CC(=O)O)C(=O)N[C@@H](Cc1ccc(O)cc1)C(=O)N[C@@H](CO)C(=O)N[C@H](C(=O)NC(C)(C)C(=O)N[C@@H](CC(C)C)C(=O)N[C@@H](CC(=O)O)C(=O)N[C@@H](CC(N)=O)C(=O)N[C@@H](CC(C)C)C(=O)N[C@@H](C)C(=O)N[C@@H](C)C(=O)N[C@@H](CCCNC(=N)N)C(=O)N[C@@H](CC(=O)O)C(=O)N[C@@H](Cc1ccccc1)C(=O)N[C@H](C(=O)N[C@@H](CC(N)=O)C(=O)N[C@@H](Cc1c[nH]c2ccccc12)C(=O)N[C@@H](CC(C)C)C(=O)N[C@H](C(=O)N[C@@H](CCC(N)=O)C(=O)N[C@H](C(=O)N[C@@H](CCCCN)C(=O)N[C@H](C(=O)N[C@H](C(=O)N[C@@H](CCCCN)C(=O)O)[C@@H](C)O)[C@@H](C)CC)[C@@H](C)O)[C@@H](C)CC)[C@@H](C)CC)[C@@H](C)O

These binders were tested against T1, human GIPR (glucose-dependent …) (assay: cell-based or functional assay).

| Binder | cAMP assay: Efficacy GIPR |
| --- | --- |
| HGEGSFGSDMSIALDKLAARDFVNWLLQTKITD (also: C14 fatty acid at C-terminus, attachment not given here) [Compound no. 66] | 97% |
| HXDGTFISDYSTILDNLAARDFINWLIQTKITK (Aib at 2; K(C10) at 33 (C-terminal residue); C-terminus -OH) [Compound no. 63] | 99% |
| HXDGTFISDYSTXLDNLAARDFINWLIQTKITK (Aib at 2 and 13; K(C10) at 33 (C-terminal residue); C-terminal amide (-NH2)) [Compound no. 65] | 107% |
| HADGTFISDYST[Aib]LDK([AEEA-AEEA-γGlu-C18 diacid])LAARDFINWLIQTKGKK [Compound no. 62] | 86% |
| HADGTFISDYSTILDNLAARDFINWLIQTKGKK([AEEA-AEEA-γGlu-C18 diacid]) (also: K33: γGlu-C18-diacid linker 2xAEEA-γGlu) [Compound no. 60] | 93% |

These binders were tested against macaque GIPR (macaque) (assay: cell-based or functional assay).

| Binder | Efficacy (%) | pEC50 |
| --- | --- | --- |
| HXDGTFISDYKTILDNLAARDFINWLIQTKITK (Aib at position 2; K(γGlu-C16) at position 11; C-terminal -OH) [Compound no. 11] | 92.5% | 9 |
| H[Aib]DGTFISDYK([γGlu-Decanoyl])T[Aib]LDNLAARDFINWLIQTKITGNDWKHNITQ-OH [Compound no. 54, listing 1 of 2 here] | 71.8% | 7.7 |

Each binder was assayed against T4, human GLP-1R (GLP-1 receptor) (human, UniProt P43220 24-463) (assay: cell-based or functional assay).

| Binder | cAMP assay: Efficacy GLP-1R |
| --- | --- |
| HXDGTFISDYSTILDNLAARDFINWLIQTKITK (Aib at 2; K(C10) at 33 (C-terminal residue); C-terminus -OH) [Compound no. 63] | 84% |
| HXDGTFISDYSTXLDNLAARDFINWLIQTKITK (Aib at 2 and 13; K(C10) at 33 (C-terminal residue); C-terminal amide (-NH2)) [Compound no. 65] | 76% |
| HADGTFISDYST[Aib]LDK([AEEA-AEEA-γGlu-C18 diacid])LAARDFINWLIQTKGKK [Compound no. 62] | 85% |
| HADGTFISDYSTILDNLAARDFINWLIQTKGKK([AEEA-AEEA-γGlu-C18 diacid]) (also: K33: γGlu-C18-diacid linker 2xAEEA-γGlu) [Compound no. 60] | 105% |
| HADGTFISDYSTILDK([AEEA-AEEA-γGlu-C18 diacid])LAARDFINWLIQTKGKK [Compound no. 64] | 85% |

Target: T4, human GLP-1R (GLP-1 receptor)
Test: cell-based or functional assay
Remark: another data set of the same source

| Binder | cAMP assay: EC50 (nM) GLP-1R | cAMP assay: Efficacy GLP-1R | cAMP assay: logEC50 GLP-1R |
| --- | --- | --- | --- |
| H[Aib]DGTFISDYK([γGlu-Decanoyl])T[Aib]LDNLAARDFINWLIQTKITGNDWKHNITQ-OH [Compound no. 54, listing 2 of 2 here] | 39.8 nM | 8% | 7.4 |
| HADGTFISDYSTILDKLAARDFINWLIQTK(C16 fatty acid)ITK [Compound no. 57] | 100 nM | 73% | 7 |

Each binder was assayed against T2, rat GIPR (assay: cell-based or functional assay).

| Binder | Efficacy (%) | pEC50 |
| --- | --- | --- |
| B1 | 71.7% | 8 |

The binders below were run against T3, human GLP-2R (glucagon-like peptide-2 …) (assay: cell-based or functional assay).

| Binder | cAMP assay: Efficacy GLP-2R |
| --- | --- |
| HXDGTFISDYSTILDNLAARDFINWLIQTKITK (Aib at 2; K(C10) at 33 (C-terminal residue); C-terminus -OH) [Compound no. 63] | 105% |
| HXDGTFISDYSTXLDNLAARDFINWLIQTKITK (Aib at 2 and 13; K(C10) at 33 (C-terminal residue); C-terminal amide (-NH2)) [Compound no. 65] | 77% |
| HADGTFISDYST[Aib]LDK([AEEA-AEEA-γGlu-C18 diacid])LAARDFINWLIQTKGKK [Compound no. 62] | 83% |
| HADGTFISDYSTILDNLAARDFINWLIQTKGKK([AEEA-AEEA-γGlu-C18 diacid]) (also: K33: γGlu-C18-diacid linker 2xAEEA-γGlu) [Compound no. 60] | 90% |
| HADGTFISDYSTILDK([AEEA-AEEA-γGlu-C18 diacid])LAARDFINWLIQTKGKK [Compound no. 64] | 75% |

Target: T1, human GIPR (glucose-dependent …)
Test: cell-based or functional assay
Remark: another data set of the same source

| Binder | cAMP assay: EC50 (nM) GIPR | cAMP assay: Efficacy GIPR |
| --- | --- | --- |
| Palmitoyl-HADGTFISDYSTILDELAARDFINWLIQTKITKNDWKHNITQ [Compound no. 48] | 2.82 nM | 112% |
| Palmitoyl-HADGTFISDYSTILDNLAARDFINWLIQTKITKAEWKHAITQ [Compound no. 49] | 2.82 nM | 105% |
| Palmitoyl-HADGTFISDYSTILDNLAARDFIEWLIQTKITKNDWKHNITQ [Compound no. 50] | 0.891 nM | 101% |
| Palmitoyl-HADGTFISDYSTILDNLAARDFINWLIETKITKNDWKHNITQ [Compound no. 51] | 0.398 nM | 104% |
| Palmitoyl-HADGTFISDYSTILDNLAARDFINWLIATKITKNDWKHNITQ [Compound no. 52] | 0.251 nM | 96% |
| Palmitoyl-HADGTFISDYST[Aib]LDNLAARDFINWLIQTKITKNDWKHNITQ [Compound no. 53] | 0.316 nM | 90% |
| H[Aib]DGTFISDYK([γGlu-Decanoyl])T[Aib]LDNLAARDFINWLIQTKITGNDWKHNITQ-OH [Compound no. 54, listing 2 of 2 here] | 1.17 nM | 86% |
| HADGTFISDYSTILDKLAARDFINWLIQTK(C16 fatty acid)ITK [Compound no. 57] | 12.6 nM | 97% |
| HADGTFISDYSTILDKLAARDFINWLIQTKITK(C16 fatty acid) [Compound no. 58] | 1.41 nM | 74% |

Target: T3, human GLP-2R (glucagon-like peptide-2 …)
Test: cell-based or functional assay
Remark: another data set of the same source

| Binder | cAMP assay: EC50 (nM) GLP-2R | cAMP assay: Efficacy GLP-2R | cAMP assay: logEC50 GLP-2R |
| --- | --- | --- | --- |
| Palmitoyl-HADGTFISDYSTILDELAARDFINWLIQTKITKNDWKHNITQ [Compound no. 48] | 25.1 nM | 69% | 7.6 |
| Palmitoyl-HADGTFISDYSTILDNLAARDFINWLIQTKITKAEWKHAITQ [Compound no. 49] | 35.5 nM | 92% | 7.5 |
| Palmitoyl-HADGTFISDYSTILDNLAARDFIEWLIQTKITKNDWKHNITQ [Compound no. 50] | 10 nM | 70% | 8 |
| Palmitoyl-HADGTFISDYSTILDNLAARDFINWLIETKITKNDWKHNITQ [Compound no. 51] | 12.6 nM | 66% | 7.9 |
| Palmitoyl-HADGTFISDYSTILDNLAARDFINWLIATKITKNDWKHNITQ [Compound no. 52] | 7.9 nM | 68% | 8.1 |
| Palmitoyl-HADGTFISDYST[Aib]LDNLAARDFINWLIQTKITKNDWKHNITQ [Compound no. 53] | 4 nM | 79% | 8.2 |
